According to the supplement of paper PMC9170038:

Test system: MS2 coat protein
Assay: apparent KD of MS2 coat protein; designed switch direction (-1 OFF switch, 1 ON switch): 1; higher = weaker reporter binding
Method in brief: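 Apparent KD, taken as the median over clusters for each design, was obtained by curve-fitting normalised cluster fluorescence. Designed RNA switches had been transcribed on Illumina chips by stalled E. coli RNA polymerase and titrated with SNAP-549-labelled MS2 coat protein, doubling from 0.7 or 1.5 nM to 3 µM.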

[1] = input ligand: microRNA oligo, concentration not stated
[2] = Eterna round: R95, input ligand: FMN 200 uM
[3] = Eterna round: R95, input ligand: microRNA oligo, concentration not stated
[4] = Eterna round: R95, input ligand: none

Sequence | apparent KD of MS2 coat protein (input ligand: FMN 200 uM) | apparent KD of MS2 coat protein [1] | apparent KD of MS2 coat protein (input ligand: none) | apparent KD of MS2 coat protein [2] | apparent KD of MS2 coat protein [3] | apparent KD of MS2 coat protein [4]
UGGCUCAGAGCAGGAUAUACGUGGUCACAUGAGGAUCACCCAUGUCUCGAGCUUCGGCUCGAGGCGUAGAAGGGCUCUGAGCCA [SSNG2/6-B2] (Eterna round: R96, puzzle: Same State NG 2) | 110 nM | 187 nM | 305 nM | – | – | –
GGAUCGGAGGCAGGAUAUGGGCUCAGAACAUGAGGAUCACCCAUGUAAAACGGCGCAAUGCGCCACCAGAAGGGCCUCCGACCG [Inmadibi] (Eterna round: R96, puzzle: Same State NG 2) | 8.62 nM | 17.8 nM | 44.7 nM | – | – | –
CGUCGUUUGAUAGGAUAUCGCUUUACAUGAGGAUCACCCGGGUUUACCACGCUGGUUUUUCUUUCCGAGAAGGAUUCUGAUGUU [salish99_SSNG02_r04_028] (Eterna round: R96, puzzle: Same State NG 2) | 117 nM | 20.7 nM | 29 nM | – | – | –
UUUAGAUUCAGAGGAUAUUGAUGUUGUAUUUUACAAGAAGGCUGAUUGGUUUGAAUUGUUUUUUAACAUGAGGAUCACCCAUGU [JR_SSNG1_Sub011] (Eterna round: R96, puzzle: Same State NG 1) | – | 19.2 nM | – | – | – | –
AAUAAUUUACAUGAGGAUCACCCAUGUGGUAAACAUGCUUUUUGCUCGUCUUAUGGUUUUUUUUUUUUUUUUUUUUU [viviankchen1] (puzzle: Sensor for hsa-mir-208a version 2) | – | – | – | 91 nM | 49.6 nM | 130 nM
GAUUCACAUGAGGAUCACCCAUGUCGUUUAAUGGGAGGAUAUACGUGGACCGUAGUCCGCGUAGAAGGCCUAAUUG [Mat - Same State 1 - Mod of JL - D24] (puzzle: Same State 1) | – | – | – | – | 74.4 nM | –
GAAACAUGACGAGGAUAUGGAACAUGAGGAUCACCCAUGUAUGUUCCAUAACGCGAAUGACGAAUCCAGAAGGCGUCGUGAAAG [Mat - Same State NG 2 - JL mod - D28] (Eterna round: R96, puzzle: Same State NG 2) | 33.6 nM | 177 nM | 233 nM | – | – | –
UGGCAACAUGAGGAUCACCCAUGUCAAACUAAUCGAGGAUAUGGGAACGAACAAGAGAAACUAGAAGGCGAACUUG [Altered State 1-11 - Jieux - Same State 1] (puzzle: Same State 1) | – | – | – | 122 nM | 137 nM | 118 nM
GAAACAUGACGAGGAUAUGGUACAUGAGGAUCACCCAUGUAUGUACCACGACGCGUACGUCGAAUCCAGAAGGCGUCGUGAAAG [Mat - Same State NG 2 - JL mod - D20] (Eterna round: R96, puzzle: Same State NG 2) | 27.8 nM | 51.1 nM | 86.4 nM | – | – | –
CAGCUCGUGUGAGGAUAUGCCGCCGUUUCGGCUGCAGAAGGUGCUACGUUACAUGAGGAUCACCCAUGUCUCUGUUGUUUCGUC [salish99_SSNG1_r04_962] (Eterna round: R96, puzzle: Same State NG 1) | 28.6 nM | 19.1 nM | 31.8 nM | – | – | –
GGGAGAGACGUAGGAUAUGGAAGAAGAUAGAGACUAGAAGGGUGAACAUGAGAAUCGAAGUGUAAAGUGAGAUGAGGUGGGAGA [iteri-1] (Eterna round: R96, puzzle: Same State NG 1) | 26.5 nM | 16.9 nM | 36.9 nM | – | – | –
UAGGGACAUGAGGAUCACCCAUGUGCCUCAUAUGGAGAAACUCAGGAUAUGCUGAGGAUCACCCGGCAGAAGGGAGAUCCGAGG (Eterna round: R96, puzzle: Same State NG 3) | 86.6 nM | 33 nM | 53.4 nM | – | – | –
UGGUACAUGGGAGGAUAUGGGCAAGAGACAUGAGGAUCACCCAUGUUAUAAAAGCCGAGAGGCAUCUAGAAGGCCCAUGUACCU [JL SSNG1 3.90] (Eterna round: R96, puzzle: Same State NG 2) | 14.6 nM | 38.5 nM | 55.4 nM | – | – | –
UAUUAAUCUGUAGGAUAUCUAGGAUAUGGACGAGGAUCACCCGAGCAGCAUCAGCGCACCAGAGGAGAGAAGGACGCUCUGGUG [pwkr ssNG2 2F5 2FMN.25] (Eterna round: R96, puzzle: Same State NG 2) | 332 nM | 93.7 nM | 469 nM | – | – | –
AUAUGAGCUAUGGAGGAUAUCCAUAACAAGACAUGAGGAUCACCCAUGUAAUCAAAACAAUAAUGGGAGAAGGCCAUAGCUCAAU [SS 2 M47] (Eterna round: R96, puzzle: Same State 2) | – | 46.9 nM | – | – | – | –
AGCUAUUACGAAGGAUAUAGUAACAUGAGGAUCACCCAUGUUUACAUGAUUAAUUGUGAUCACGUCUAGAAGGUUGUACUAACA [SameState NG2 #34] (Eterna round: R96, puzzle: Same State NG 2) | 33.1 nM | 30.2 nM | 37.1 nM | – | – | –
UGGCUCAGACUAGGAUAUAUGCGAUCACAUGAGGAUCACCCAUGUCUCGAGCUUCGGCUCGAGGCAUAGAAGGAGUCUGAGCCA [SSNG2/4-D2] (Eterna round: R96, puzzle: Same State NG 2) | 14.4 nM | 34.6 nM | 56.5 nM | – | – | –
GCUGGAAACUACAUGAGGAUCACCCAUGUUCCGGAAACGGCACAGGAUAUCUGUCCGAAAAGGUCAGAGAAGGGUGAAACCAGC [Fiskers NG3ss - 84] (Eterna round: R96, puzzle: Same State NG 3) | 106 nM | 90.3 nM | 1020 nM | – | – | –
AUUAAACAUGAGGAUCACCCAUGUCAACAAAGUCGAGGAUAUGGGCAAAUAAAAUAUGAACCAGAAGGCGAAUAAU [salish99_ss1_r3_064] (puzzle: Same State 1) | – | – | – | 32.1 nM | 220 nM | 412 nM
AAACUACGUGCACAGGAUAUACGUUCCUAUACAUGAGGAUCACCCAUGUACCAACUGAAAAGGAAGUAGAAGGGUGUCCGUAAAC [Erbibearza] (puzzle: Same State 2) | – | – | – | 17.7 nM | 80.3 nM | 53.7 nM
CGUCGUUUGAUAGGAUAUCGCUUUACAUGAGGAUCACCCAUGUUUCCCACGCUGGUUUUUCUUUCCGAGAAGGAUUCUGAUGUU [salish99_SSNG02_r04_029] (Eterna round: R96, puzzle: Same State NG 2) | 44.6 nM | 31.4 nM | 40.6 nM | – | – | –
UCAGUCAUGUAAGGAUAUGCAGCCGAAACGGCUGCAGAAGGUACUAUAAUUACAUGAGGAUCACCCAUGUUAUAAAAUUUAUAU [Mat - Same State NG 1 - JL mod - D64] (Eterna round: R96, puzzle: Same State NG 1) | 24.4 nM | 44.9 nM | 58.8 nM | – | – | –
GCAGGAAGCAAAGGAUAUGGAAGAUUACUCAGUCCAGAAGGUUGCUUCUUGGAACAUGAGGAUCACCCAUGUCACCGUUACGGC [Eternabot solution 30] (Eterna round: R96, puzzle: Same State NG 1) | 15.8 nM | 19 nM | 14.5 nM | – | – | –
